Laboratory results published in patent publication US11672867B2, “Protein-templated self-assembly of a covalent polymer network for intracellular trafficking and traceless release” (University of Massachusetts, priority 2017, dated 2023).

How the values were obtained:
[1] = Dynamic light scattering particle size; format: physicochemical; settings: 1 mg/mL, phosphate buffer pH 7.4
Experimental: (§1) Dynamic light scattering (DLS) and zeta potential measurements were performed using a Malvern Nanozetasizer-ZS. All samples were diluted with phosphate buffer pH 7.4 to adjust final concentration to 1 mg/mL.

[2] = Release kinetics of proteins from nanoassemblies (DTT, SDS-PAGE); settings: reducing conditions (DTT)
Experimental: 30 μL of different samples containing NA-Empty^ED, NA-Empty^PEG, NA-Lys^ED, NA-Lys^PEG, NA-RNaseA^ED, NA-RNaseA^PEG, NA-CytC^ED and NA-CytC^PEG were mixed with 10 μL of loading buffer (DTT free) and 25 μL of each sample was loaded on acrylamide gel. For release experiment, identical protein-polymer conjugate samples were treated with 10 mM DTT and incubated at 37° C. for 4 h before subjecting to acrylamide gel electrophoresis. To calculate the amount of released protein from each sample, standard curves were generated from the known concentrations of pure protein samples loaded into the gel lanes. The gel image analysis and quantification were performed with Bio-Rad Image Lab™ software.
To monitor the release kinetics of proteins (lysozyme, RNase A and cytochrome C), 30 μL of NA-Lys^ED, NA-Lys^PEG, NA-RNaseA^ED, NA-RNaseA^PEG, NA-CytC^ED and NA-CytC^PEG samples were incubated at 37° C. with requisite amounts of 10 mM DTT for different time intervals. After each incubation time, samples were collected and immediately frozen at −20° C. Finally, all samples were subjected to SDS-PAGE analysis to quantify the amount of released proteins. Encapsulation and release studies with variations in DTT concentrations and crosslinker concentrations were carried out using similar experimental protocols.

HeLa cells = assay: Cell viability with alamarBlue assay; format: cell-based, Human; settings: 72 h
Experimental: Human cervical carcinoma (HeLa) cells were cultured in T75 cell culture flask containing Dulbecco's Modified Eagle Medium/Nutrient Mixture F-12 (DMEM/F12) in a humidified incubator with 5% CO2 at 37° C. Culture media was supplemented with 10% fetal bovine serum (FBS), 1% L-glutamine and 1% antibiotic-antimycotic (100 units/mL of penicillin, 100 μg/mL of streptomycin, and 0.25 μg/mL of Amphotericin B).
HeLa cells were seeded into 96-well tissue culture plates at a density of 5000 cells/well/100 μL sample and incubated at 37° C. After 24 h, culture media was replaced and cells were treated with different concentrations of protein-polymer conjugates and control protein samples (0.1 mg/mL to 2 mg/mL protein concentration) in 100 μL media. All samples were incubated for 6 h at 37° C., then the media was replaced and incubated for another 66 h at 37° C. Afterwards media was replaced, washed with PBS buffer for three times and each well was treated with 100 μL 10% alamarBlue in media with serum. Finally, samples were incubated for 1 h and subjected to fluorescence measurement with SpectraMax® M5 at 560 nm excitation/590 nm emission wavelength in a black 96-well flat bottomed plate. Cellular viability of the small molecule byproducts were assessed using a similar protocol.

[3] = Encapsulation efficacy and loading capacity (Pierce 660 nm Protein Assay of filtrate); format: physicochemical; settings: for Amount of protein encapsulated, μg (Initial dose = 1 mg): 10 mg P1, 1 mg protein, back-calculated from filtrate
Experimental: All nanoassemblies were evaluated for amount of protein encapsulation after conjugation and cross-linking process. Protein concentration in each sample was measured from the filtrate after crosslinking reaction and the amount of protein was back-calculated in the conjugate. An absorbance based assay (with Pierce™ 660 nm Protein Assay Reagent) was utilized to quantify the protein amount. The encapsulation efficiency (EE) and loading capacity (LC) were calculated based on the following formulas: […]

[4] = Calculation of number of proteins per particle; format: physicochemical; settings: from DLS diameters, sphere packing efficiency ~74%
Description: Calculation of Number of Proteins Per Particle: Example for NA-Lys^ED: Diameter of nanoassembly, D=9.7 nm, radius, R=4.85 nm Volume of each particle, VPPC=(4/3)πR^3=(4/3) π(4.85)^3 nm^3=477.6×10^−21 cm^3 Again, for lysozyme, diameter of protein, d=3.6 nm, radius, r=1.8 nm Volume of each protein, VLy=(4/3)πr^3=(4/3) π(1.8)^3 nm^3=24.4×10^−21 cm^3 Assuming that maximum sphere packing efficiency to be ˜74%,^ii number of lysozyme per nanoassembly to be=(477.6×10^−21/24.4×10^−21)×(0.74)=14 The results for all other nanoassemblies are summarized below: […]

[5] = Zeta potential measurement; format: physicochemical; settings: 1 mg/mL, phosphate buffer pH 7.4
Experimental: as §1

[6] = Crosslinking density from released 4-nitrophenol (UV-Vis, 400 nm); format: physicochemical; settings: adjusted for ~1% hydrolysis of control polymer
Experimental: The conjugation process and cross-linking density for the protein-polymer conjugates can be evaluated by UV-Vis spectroscopy. The amount of released 4-nitrophenol was monitored at its λmax 400 nm (measured molar extinction co-efficient≈12.14*10^3 L M^−1 cm^−1 at 400 nm). For each absorbance measurement, samples were diluted to twenty times, for e.g. 50 μL of sample was diluted 1 mL with distilled water. Cross-linking density was calculated by assuming that formation of a single chain crosslinking bond would require cleavage of two NPC units and produce two 4-nitrophenol molecules.
Ratio of NPC:PEG in the polymer, P1=50:50
Molecular weight of repeating NPC-unit=387 g/mol
Amount of polymer used=0.1 mg/mL for each absorbance measurement
From Beer-lamber's law: A=ε.c.1 and path-length=1 cm
Thus, moles of 4-nitro phenol in 1 mL solution=3.04*10^−8
This represents is 23.5 mol % of total NPC unit. As it is assumed that two 4-nitro phenol are released per crosslinking bond formation and NPC unit is 50 mol % of total polymer. Therefore, crosslinking density=23.5/2*0.5=5.9%
Hydrolysis from control polymer sample contributes ˜1% towards cross-linking density and adjusted for all calculations. Crosslinking densities for all other conjugates were calculated based on the above method and summarized below: […]

cytochrome C
Size, nm (hydrodynamic diameter, DLS) [1]: 4.3 ± 0.1 nm
Size, nm (hydrodynamic diameter, DLS) ([1]; listed as native CytC): ~4 nm
Order of overall kinetics of protein release [2]: CytC<RNaseA<Lys
Cell viability (HeLa cells): lack of toxicity

lysozyme
Size, nm (hydrodynamic diameter, DLS) [1]: 3.6 ± 0.4 nm
Order of overall kinetics of protein release [2]: CytC<RNaseA<Lys

B1: ribonuclease A (protein, UniProt P61823 27-150, looked up)
Ribonuclease pancreatic: KETAAAKFERQHMDSSTSAASSSNYCNQMMKSRNLTKDRCKPVNTFVHESLADVQAVCSQKNVACKNGQTNCYQSYSTMSITDCRETGSSKYPNCAYKTTQANKHIIVACEGNPYVPVHFDASV
notes: native protein from Sigma-Aldrich, model cargo
Size, nm (hydrodynamic diameter, DLS) [1]: 3.3 ± 0.2 nm
Order of overall kinetics of protein release [2]: CytC<RNaseA<Lys

B2: NA-RNaseA^PEG: RNase A conjugated to polymer P1 and crosslinked with (PEO)4-bis-amine; nanoassembly (conjugate, UniProt P61823 27-150, looked up)
Ribonuclease pancreatic: KETAAAKFERQHMDSSTSAASSSNYCNQMMKSRNLTKDRCKPVNTFVHESLADVQAVCSQKNVACKNGQTNCYQSYSTMSITDCRETGSSKYPNCAYKTTQANKHIIVACEGNPYVPVHFDASV
modifications: polymer P1 conjugate, PEO4-bis-amine crosslinked nanoassembly
notes: RNase A conjugated to polymer P1 and crosslinked with (PEO)4-bis-amine; nanoassembly
Loading capacity (LC), % [3]: 5.5%
Amount of protein encapsulated, μg (Initial dose = 1 mg) [3]: 553 µg
# of Protein per PPC particle [4]: 18
Size, nm (hydrodynamic diameter, DLS) [1]: 9.5 ± 0.1 nm
Zeta potential, mV [5]: −8.7 ± 0.7 mV
Crosslinking density, % [6]: 5.1%

B3: NA-RNaseA^ED: RNase A conjugated to polymer P1 and crosslinked with ethylenediamine; nanoassembly (conjugate, UniProt P61823 27-150, looked up)
Ribonuclease pancreatic: KETAAAKFERQHMDSSTSAASSSNYCNQMMKSRNLTKDRCKPVNTFVHESLADVQAVCSQKNVACKNGQTNCYQSYSTMSITDCRETGSSKYPNCAYKTTQANKHIIVACEGNPYVPVHFDASV
modifications: polymer P1 conjugate, ethylenediamine-crosslinked nanoassembly
Loading capacity (LC), % [3]: 5.6%
Amount of protein encapsulated, μg (Initial dose = 1 mg) [3]: 558 µg
# of Protein per PPC particle [4]: 16
Size, nm (hydrodynamic diameter, DLS) [1]: 9.1 ± 0.1 nm
Zeta potential, mV [5]: −8.2 ± 0.7 mV
Crosslinking density, % [6]: 5.1%
